{"source": "patent US11629364B2", "about": "“Methods for synthesizing anticoagulant polysaccharides” (OPTIMVIA, LLC, priority 2019, dated 2023)", "experiment": "6OST activity: 6-O sulfated products detected by LCMS after lyase digestion", "type": "biochemical", "conditions": "for 6OST activity: N,2,6-HS products by MS: procedures of Example 4, expected; for 6OST sulfotransferase activity by sulfo group donor: NCS or PNS as sulfo donor, D0S6 and D2S6 disaccharides", "method": "A study was conducted in accordance with embodiments of the present disclosure to confirm 6OST activity of enzymes comprising the amino acid sequence of SEQ ID NO: 18, SEQ ID NO: 20, or SEQ ID NO: 22 by detecting the presence of 6-O sulfated polysaccharide products as a result of their sulfotransfer reaction, using a similar LCMS procedure as in Example 3, except that the sulfo acceptor polysaccharide was prepared by chemically 6-O desulfating commercially available heparin (CAS code: 9041-08-1, available from Millipore Sigma), according to the procedure provided by Kariya, Y., et al., (2000) J. Biol. Chem. 275 (34):25949-25958)."}
{"molecule": "SEQ ID NO: 48: mutant of the full-length pig 6OST enzyme, SEQ ID NO: 18 mutations (protein, Amino acid sequence encoding for engineered arylsulfate-dependent 6-O-sulfotransferase variant 9) MRRRRAGSRTMVERASKFVLVVAGSACFMLILYQYAGPGLSLGAPGGRAPPDDLDLFPTPDPHYEKKYYFPVRELERSLHFDMKGDDVIVFLHIGHTGGTTFGRHLVQNVRLEVPCDCRPGQKKCTCYRPNRRETWLFSRFSTGWSCGTNADWTELTNCVPGVLDRRDPAALRTPRKFYYITLLRDPVSRYLGGWRHHQRGGTNKTSLHMCDGRTPTPEELPPCYEGTDWSGCTLQEFMDCPYNLANNRQVRMLADLSLVGCYNLSFIPEGKRSQLLLESAKKNLRGMAFFGLTEFQRKTQYLFERTFNLKFIRPFMQYNSTRAGGVEVGEDTIRRIEELNDLDMQLYDYARDLFQQRYQYKRQLERRQQRLRSREERLLHRAKEAPPRGDTEEPGRVPTEDYMSHIIEKW", "values": [{"measurement": "6OST activity: N,2,6-HS products by MS", "value": "confirm the presence of N,2,6-HS products"}]}
{"molecule": "SEQ ID NO: 46: mutant of residues 67-377 of the pig 6OST enzyme, SEQ ID NO: 20 mutations (protein, Amino acid sequence encoding for engineered arylsulfate-dependent 6-O-sulfotransferase variant 7) MKYYFPVRELERSLHFDMKGDDVIVFLHIGHTGGTTFGRHLVQNVRLEVPCDCRPGQKKCTCYRPNRRETWLFSRFSTGWSCGTRADWTELTNCVPGVLDRRDPAALRTPRKFYYITLLRDPVSRYLSHWRHTQRGGANKTGLHMCDGRTPTPEELPPCYEGTDWSGCTLQEFMDCPYNLGNNRQVRMLADLSLVGCYNLSFIPEGKRSQLLLESAKKNLRGMAFFGLTEFQRKTQYLFERTFNLKFIRPFMQYNSTRAGGVEVGEDTIRRIEELNDLDMQLYDYARDLFQQRYQYKRQLERRQQRLRSREE", "values": [{"measurement": "6OST activity: N,2,6-HS products by MS", "value": "confirm the presence of N,2,6-HS products"}]}
{"molecule": "SEQ ID NO: 47: mutant of residues 67-377 of the pig 6OST enzyme, SEQ ID NO: 22 mutations (protein, Amino acid sequence encoding for engineered arylsulfate-dependent 6-O-sulfotransferase variant 8) MKYYFPVRELERSLHFDMKGDDVIVFLHIGHTGGTTFGRHLVQNVRLEVPCDCRPGQKKCTCYRPNRRETWLFSRFSTGWSCGSHADWTELTNCVPGVLDRRDPAALRTPRKFYYITLLRDPVSRYLSGWRHHQRGGANKTSLHMCDGRTPTPEELPPCYEGTDWSGCTLQEFMDCPYNLGNNRQVRMLADLSLVGCYNLSFIPEGKRSQLLLESAKKNLRGMAFFGLTEFQRKTQYLFERTFNLKFIRPFMQYNSTRAGGVEVGEDTIRRIEELNDLDMQLYDYARDLFQQRYQYKRQLERRQQRLRSREE", "values": [{"measurement": "6OST activity: N,2,6-HS products by MS", "value": "confirm the presence of N,2,6-HS products"}]}
{"molecule": "SEQ ID NO: 18: engineered aryl sulfate-dependent 6OST enzyme, mutant of isoform 1 of the mouse 6OST enzyme (protein, Amino acid sequence encoding for engineered arylsulfate-dependent 6-O-sulfotransferase variant 1, engineered aryl sulfate-dependent 6OST enzyme, mutant of isoform 1 of the mouse 6OST enzyme) MKYYFPVRELERSLRFDMKGDDVIVFLHIGHTGGTTFGRHLVQNVRLEVPCDCRPGQKKCTCYRPNRRETWLFSRFSTGWSCGTNADWTELTNCVPGVLDRRDPAGLRSPRKFYYITLLRDPVSRYLGGWRHHQRGGTNKTSLHMCDGRTPTPEELPPCYEGTDWSGCTLQEFMDCPYNLANNRQVRMLADLSLVGCYNLSFIPESKRAQLLLESAKKNLRGMAFFGLTEFQRKTQYLFERTFNLKFIRPFMQYNSTRAGGVEVDEDTIRHIEELNDLDMQLYDYAKDLFQQRYQYKRQLERREQRLRNREE", "values": [{"measurement": "6OST sulfotransferase activity by sulfo group donor", "value": "active when NCS was the sulfo group donor"}]}
{"molecule": "SEQ ID NO: 45: mutant of residues 67-377 of the pig 6OST enzyme, SEQ ID NO: 18 mutations (protein, Amino acid sequence encoding for engineered arylsulfate-dependent 6-O-sulfotransferase variant 6) MKYYFPVRELERSLHFDMKGDDVIVFLHIGHTGGTTFGRHLVQNVRLEVPCDCRPGQKKCTCYRPNRRETWLFSRFSTGWSCGTNADWTELTNCVPGVLDRRDPAALRTPRKFYYITLLRDPVSRYLGGWRHHQRGGTNKTSLHMCDGRTPTPEELPPCYEGTDWSGCTLQEFMDCPYNLANNRQVRMLADLSLVGCYNLSFIPEGKRSQLLLESAKKNLRGMAFFGLTEFQRKTQYLFERTFNLKFIRPFMQYNSTRAGGVEVGEDTIRRIEELNDLDMQLYDYARDLFQQRYQYKRQLERRQQRLRSREE", "values": [{"measurement": "6OST activity: N,2,6-HS products by MS", "value": "confirm the presence of N,2,6-HS products"}]}
{"molecule": "SEQ ID NO: 20: engineered aryl sulfate-dependent 6OST enzyme, mutant of isoform 1 of the mouse 6OST enzyme (protein, Amino acid sequence encoding for engineered arylsulfate-dependent 6-O-sulfotransferase variant 2, engineered aryl sulfate-dependent 6OST enzyme, mutant of isoform 1 of the mouse 6OST enzyme) MKYYFPVRELERSLRFDMKGDDVIVFLHIGHTGGTTFGRHLVQNVRLEVPCDCRPGQKKCTCYRPNRRETWLFSRFSTGWSCGTRADWTELTNCVPGVLDRRDPAGLRSPRKFYYITLLRDPVSRYLSHWRHTQRGGANKTGLHMCDGRTPTPEELPPCYEGTDWSGCTLQEFMDCPYNLGNNRQVRMLADLSLVGCYNLSFIPESKRAQLLLESAKKNLRGMAFFGLTEFQRKTQYLFERTFNLKFIRPFMQYNSTRAGGVEVDEDTIRHIEELNDLDMQLYDYAKDLFQQRYQYKRQLERREQRLRNREE", "values": [{"measurement": "6OST sulfotransferase activity by sulfo group donor", "value": "active when NCS was the sulfo group donor"}]}
{"molecule": "SEQ ID NO: 22: engineered aryl sulfate-dependent 6OST enzyme, mutant of isoform 1 of the mouse 6OST enzyme (protein, Amino acid sequence encoding for engineered arylsulfate-dependent 6-O-sulfotransferase variant 3, engineered aryl sulfate-dependent 6OST enzyme, mutant of isoform 1 of the mouse 6OST enzyme) MKYYFPVRELERSLRFDMKGDDVIVFLHIGHTGGTTFGRHLVQNVRLEVPCDCRPGQKKCTCYRPNRRETWLFSRFSTGWSCGSHADWTELTNCVPGVLDRRDPAGLRSPRKFYYITLLRDPVSRYLSGWRHHQRGGANKTSLHMCDGRTPTPEELPPCYEGTDWSGCTLQEFMDCPYNLGNNRQVRMLADLSLVGCYNLSFIPESKRAQLLLESAKKNLRGMAFFGLTEFQRKTQYLFERTFNLKFIRPFMQYNSTRAGGVEVDEDTIRHIEELNDLDMQLYDYAKDLFQQRYQYKRQLERREQRLRNREE", "values": [{"measurement": "6OST sulfotransferase activity by sulfo group donor", "value": "active when PNS was the sulfo group donor"}, {"measurement": "relative 6OST activity among engineered enzymes", "setting": "comparing peak area percentages of D0S6 and D2S6 disaccharides", "value": "the most active"}]}
